# According to the supplement of paper PMC10065799, “High-throughput profiling of sequence recognition by tyrosine kinases and SH2 domains using bacterial peptide display” (eLife, 2023):
# Target: Hck (UniProt P08631)
# Assay: phosphorylation enrichment, bacterial display (enrichment ratio); higher = better substrate or ligand; peptides without Tyr show the background
# 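Also: 11-residue human phosphosite peptides and single-mutation variants displayed on the E. coli surface, counted by deep sequencing, each peptide's frequency after selection divided by its frequency in the unselected input library; frequency after pTyr selection over input frequency; kinase dosed for 20-30% of maximal phosphorylation in three min.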
# Hck, sequence (P08631 whole entry, looked up): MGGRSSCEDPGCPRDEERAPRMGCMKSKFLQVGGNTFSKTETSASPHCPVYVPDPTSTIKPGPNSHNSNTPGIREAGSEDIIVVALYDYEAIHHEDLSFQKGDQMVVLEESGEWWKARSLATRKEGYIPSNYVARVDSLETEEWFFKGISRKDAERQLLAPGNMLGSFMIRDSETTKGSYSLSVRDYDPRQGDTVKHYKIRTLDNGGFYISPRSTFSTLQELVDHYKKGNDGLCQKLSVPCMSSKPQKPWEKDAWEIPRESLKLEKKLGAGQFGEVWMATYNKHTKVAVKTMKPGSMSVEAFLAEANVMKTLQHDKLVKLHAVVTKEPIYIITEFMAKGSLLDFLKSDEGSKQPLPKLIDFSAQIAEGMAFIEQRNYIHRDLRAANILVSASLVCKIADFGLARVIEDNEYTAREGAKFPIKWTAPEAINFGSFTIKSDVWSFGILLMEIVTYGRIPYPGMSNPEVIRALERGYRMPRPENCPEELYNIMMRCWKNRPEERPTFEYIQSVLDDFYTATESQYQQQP
row,Sequence,phosphorylation enrichment
1,ILTFKYLQKPM [KIT_Y547_YF],0.543
2,MSSLFYANTLF [HOXB7_Y6_YF],0.905
3,KKRSSYGNSSD [SELENOK_Y52_R50S],0.475
4,KLIETYSSKNF [PLP1_Y50_F51S_YF],0.519
5,SHSMRYFFTAV [HLA-C_Y31_D33F],0.525
6,ELELLYLDRNS [NYX_Y284],0.551
7,IIGNGYYFRVF [MYBPC3_Y1135],0.373
8,PQGVGYPPQPQ [EP300_Y2219_Q2223P],0.571
9,LTDLRYKVSGP,0.594
10,KTDVHYRSLGG [DYSF_Y1858],0.371
11,GGQVFYNSEFG [FLT4_Y1333_YF],0.532
12,VDFQPYRKHKF [TEX37_Y28_YF],0.451
13,SLIDGYYRLTA [JAK2_Y372],0.475
14,DVVKDYAFVHM [RBM14_Y114],0.435
15,NDEDIYKGLPD [VAV3_Y141],0.878
16,TLQNMYGCDVG [HLA-B_Y123_S121N],0.625
17,FENGEYIIRQG [PRKG1_Y247_YF],0.565
18,QAIDEYEKWLE [MAP9_Y603_N601D],0.607
19,ERWLKYFPNEQ [HS3ST5_Y244_I247N],0.482
20,MDNQEYKDAYT [BRDT_Y331_K336T],0.673
21,HRERPYGGGGG [FUS_Y526_R521H],0.439
22,AVAFLYYKSIG [ADGRL4_Y301_V300L],0.518
23,SWDKRYCEAGC [ITGA2B_Y197_F202C],0.417
24,RLAKRYLIWEC [SCN5A_Y694_Q692K],0.505
25,YRIDHYLGKEM [G6PD_Y202],0.57
26,SVAVPYEPPEV [TP53_Y220_V217A],0.565
27,ALAHEYHGGGG [HBB_Y146_K145E],0.425
28,SSVPDYLAAVD [GLB1_Y154_D151V],0.517
29,PFFTSYPPSPD [GDAP2_Y491_YF],0.356

# Target: Jak2 (UniProt O60674)
# Assay: as above
# Jak2, sequence (O60674 whole entry, looked up): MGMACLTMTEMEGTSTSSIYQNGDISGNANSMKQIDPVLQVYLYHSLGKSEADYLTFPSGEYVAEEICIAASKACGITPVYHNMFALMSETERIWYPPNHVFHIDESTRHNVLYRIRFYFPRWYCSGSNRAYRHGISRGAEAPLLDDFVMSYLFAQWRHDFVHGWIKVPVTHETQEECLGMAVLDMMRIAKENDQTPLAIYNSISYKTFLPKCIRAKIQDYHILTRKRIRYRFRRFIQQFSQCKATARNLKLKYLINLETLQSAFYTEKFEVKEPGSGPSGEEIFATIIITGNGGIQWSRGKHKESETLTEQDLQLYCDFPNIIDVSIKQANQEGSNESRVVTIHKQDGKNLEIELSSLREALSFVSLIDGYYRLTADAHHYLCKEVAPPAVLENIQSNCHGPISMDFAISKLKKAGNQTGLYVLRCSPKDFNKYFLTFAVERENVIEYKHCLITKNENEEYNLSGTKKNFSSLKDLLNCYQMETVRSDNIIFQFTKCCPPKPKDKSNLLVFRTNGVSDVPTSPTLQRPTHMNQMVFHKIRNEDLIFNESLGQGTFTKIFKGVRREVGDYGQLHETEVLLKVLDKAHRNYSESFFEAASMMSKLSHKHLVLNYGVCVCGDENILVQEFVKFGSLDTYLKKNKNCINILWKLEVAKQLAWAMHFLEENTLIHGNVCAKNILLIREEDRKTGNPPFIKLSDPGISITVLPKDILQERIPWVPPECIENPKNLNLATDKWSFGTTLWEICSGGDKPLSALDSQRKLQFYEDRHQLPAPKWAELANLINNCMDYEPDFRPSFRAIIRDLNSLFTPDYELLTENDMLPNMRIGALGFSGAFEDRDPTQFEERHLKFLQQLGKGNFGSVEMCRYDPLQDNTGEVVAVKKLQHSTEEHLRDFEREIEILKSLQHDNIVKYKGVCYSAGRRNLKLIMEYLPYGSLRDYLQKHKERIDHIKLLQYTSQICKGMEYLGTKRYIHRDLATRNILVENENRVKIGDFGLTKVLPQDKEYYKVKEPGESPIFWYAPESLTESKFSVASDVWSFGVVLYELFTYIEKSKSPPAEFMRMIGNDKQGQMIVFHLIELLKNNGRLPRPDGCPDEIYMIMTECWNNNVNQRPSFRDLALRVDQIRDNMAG
row,Sequence,phosphorylation enrichment
1,ILTFKYLQKPM [KIT_Y547_YF],1.42
2,MSSLFYANTLF [HOXB7_Y6_YF],0.859
3,KKRSSYGNSSD [SELENOK_Y52_R50S],0.523
4,KLIETYSSKNF [PLP1_Y50_F51S_YF],0.59
5,SHSMRYFFTAV [HLA-C_Y31_D33F],1.13
6,ELELLYLDRNS [NYX_Y284],0.761
7,IIGNGYYFRVF [MYBPC3_Y1135],1.46
8,PQGVGYPPQPQ [EP300_Y2219_Q2223P],0.926
9,LTDLRYKVSGP,0.687
10,KTDVHYRSLGG [DYSF_Y1858],0.48
11,GGQVFYNSEFG [FLT4_Y1333_YF],1.25
12,VDFQPYRKHKF [TEX37_Y28_YF],0.479
13,SLIDGYYRLTA [JAK2_Y372],7.08
14,DVVKDYAFVHM [RBM14_Y114],0.661
15,NDEDIYKGLPD [VAV3_Y141],0.947
16,TLQNMYGCDVG [HLA-B_Y123_S121N],0.989
17,FENGEYIIRQG [PRKG1_Y247_YF],0.92
18,QAIDEYEKWLE [MAP9_Y603_N601D],1.46
19,ERWLKYFPNEQ [HS3ST5_Y244_I247N],0.927
20,MDNQEYKDAYT [BRDT_Y331_K336T],1.11
21,HRERPYGGGGG [FUS_Y526_R521H],0.386
22,AVAFLYYKSIG [ADGRL4_Y301_V300L],1.24
23,SWDKRYCEAGC [ITGA2B_Y197_F202C],0.641
24,RLAKRYLIWEC [SCN5A_Y694_Q692K],0.852
25,YRIDHYLGKEM [G6PD_Y202],0.865
26,SVAVPYEPPEV [TP53_Y220_V217A],1.1
27,ALAHEYHGGGG [HBB_Y146_K145E],0.599
28,SSVPDYLAAVD [GLB1_Y154_D151V],1.11
29,PFFTSYPPSPD [GDAP2_Y491_YF],1.14

# Target: MERTK (UniProt Q12866)
# Assay: as above
# MERTK, sequence (Q12866 whole entry, looked up): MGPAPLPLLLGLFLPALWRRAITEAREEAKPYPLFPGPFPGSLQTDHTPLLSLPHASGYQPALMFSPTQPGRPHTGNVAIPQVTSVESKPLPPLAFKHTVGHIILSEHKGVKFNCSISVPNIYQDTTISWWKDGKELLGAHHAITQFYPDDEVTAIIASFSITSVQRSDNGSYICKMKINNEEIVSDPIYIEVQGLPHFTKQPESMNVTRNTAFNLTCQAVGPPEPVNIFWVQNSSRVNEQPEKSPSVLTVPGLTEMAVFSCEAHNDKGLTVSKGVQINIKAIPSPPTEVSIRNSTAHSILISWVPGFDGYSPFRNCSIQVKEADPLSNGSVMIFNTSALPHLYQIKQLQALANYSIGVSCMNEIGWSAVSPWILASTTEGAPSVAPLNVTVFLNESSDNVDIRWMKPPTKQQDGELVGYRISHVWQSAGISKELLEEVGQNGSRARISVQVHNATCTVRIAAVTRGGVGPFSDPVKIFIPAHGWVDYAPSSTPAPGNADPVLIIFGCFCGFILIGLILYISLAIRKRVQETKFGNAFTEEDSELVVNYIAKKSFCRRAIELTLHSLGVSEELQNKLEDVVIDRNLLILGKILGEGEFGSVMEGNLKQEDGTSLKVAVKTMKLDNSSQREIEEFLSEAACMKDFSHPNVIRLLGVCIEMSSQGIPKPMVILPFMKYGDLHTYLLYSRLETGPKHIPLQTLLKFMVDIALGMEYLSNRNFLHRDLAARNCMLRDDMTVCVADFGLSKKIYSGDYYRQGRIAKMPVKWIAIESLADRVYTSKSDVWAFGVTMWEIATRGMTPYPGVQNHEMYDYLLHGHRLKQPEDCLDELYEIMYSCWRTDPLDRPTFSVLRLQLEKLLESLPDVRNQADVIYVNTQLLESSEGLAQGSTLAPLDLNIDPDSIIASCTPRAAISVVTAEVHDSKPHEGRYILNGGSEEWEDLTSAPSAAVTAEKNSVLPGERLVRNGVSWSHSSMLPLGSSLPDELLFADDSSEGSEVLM
row,Sequence,phosphorylation enrichment
1,ILTFKYLQKPM [KIT_Y547_YF],0.548
2,MSSLFYANTLF [HOXB7_Y6_YF],3.91
3,KKRSSYGNSSD [SELENOK_Y52_R50S],0.556
4,KLIETYSSKNF [PLP1_Y50_F51S_YF],0.401
5,SHSMRYFFTAV [HLA-C_Y31_D33F],0.525
6,ELELLYLDRNS [NYX_Y284],0.347
7,IIGNGYYFRVF [MYBPC3_Y1135],0.318
8,PQGVGYPPQPQ [EP300_Y2219_Q2223P],0.74
9,LTDLRYKVSGP,0.464
10,KTDVHYRSLGG [DYSF_Y1858],0.377
11,GGQVFYNSEFG [FLT4_Y1333_YF],0.546
12,VDFQPYRKHKF [TEX37_Y28_YF],0.472
13,SLIDGYYRLTA [JAK2_Y372],0.436
14,DVVKDYAFVHM [RBM14_Y114],0.574
15,NDEDIYKGLPD [VAV3_Y141],0.444
16,TLQNMYGCDVG [HLA-B_Y123_S121N],0.446
17,FENGEYIIRQG [PRKG1_Y247_YF],0.427
18,QAIDEYEKWLE [MAP9_Y603_N601D],0.996
19,ERWLKYFPNEQ [HS3ST5_Y244_I247N],0.38
20,MDNQEYKDAYT [BRDT_Y331_K336T],0.586
21,HRERPYGGGGG [FUS_Y526_R521H],0.557
22,AVAFLYYKSIG [ADGRL4_Y301_V300L],0.469
23,SWDKRYCEAGC [ITGA2B_Y197_F202C],0.401
24,RLAKRYLIWEC [SCN5A_Y694_Q692K],0.503
25,YRIDHYLGKEM [G6PD_Y202],0.508
26,SVAVPYEPPEV [TP53_Y220_V217A],0.493
27,ALAHEYHGGGG [HBB_Y146_K145E],0.287
28,SSVPDYLAAVD [GLB1_Y154_D151V],0.463
29,PFFTSYPPSPD [GDAP2_Y491_YF],0.629

# System: c-Abl (mouse)
# Assay: as above
row,Sequence,phosphorylation enrichment
1,ILTFKYLQKPM [KIT_Y547_YF],1.07
2,MSSLFYANTLF [HOXB7_Y6_YF],0.693
3,KKRSSYGNSSD [SELENOK_Y52_R50S],0.489
4,KLIETYSSKNF [PLP1_Y50_F51S_YF],0.588
5,SHSMRYFFTAV [HLA-C_Y31_D33F],0.923
6,ELELLYLDRNS [NYX_Y284],0.573
7,IIGNGYYFRVF [MYBPC3_Y1135],0.775
8,PQGVGYPPQPQ [EP300_Y2219_Q2223P],0.931
9,LTDLRYKVSGP,0.684
10,KTDVHYRSLGG [DYSF_Y1858],0.426
11,GGQVFYNSEFG [FLT4_Y1333_YF],0.884
12,VDFQPYRKHKF [TEX37_Y28_YF],0.595
13,SLIDGYYRLTA [JAK2_Y372],0.522
14,DVVKDYAFVHM [RBM14_Y114],0.659
15,NDEDIYKGLPD [VAV3_Y141],0.802
16,TLQNMYGCDVG [HLA-B_Y123_S121N],0.756
17,FENGEYIIRQG [PRKG1_Y247_YF],0.653
18,QAIDEYEKWLE [MAP9_Y603_N601D],0.85
19,ERWLKYFPNEQ [HS3ST5_Y244_I247N],0.518
20,MDNQEYKDAYT [BRDT_Y331_K336T],0.792
21,HRERPYGGGGG [FUS_Y526_R521H],0.556
22,AVAFLYYKSIG [ADGRL4_Y301_V300L],1.07
23,SWDKRYCEAGC [ITGA2B_Y197_F202C],0.984
24,RLAKRYLIWEC [SCN5A_Y694_Q692K],0.771
25,YRIDHYLGKEM [G6PD_Y202],0.706
26,SVAVPYEPPEV [TP53_Y220_V217A],0.823
27,ALAHEYHGGGG [HBB_Y146_K145E],0.493
28,SSVPDYLAAVD [GLB1_Y154_D151V],0.801
29,PFFTSYPPSPD [GDAP2_Y491_YF],0.901
